Target: whole pea aphid BBMV proteins
Test: pull-down with whole pea aphid BBMV, anti-GFP western blot, ImageJ band intensities

fold increase in BBMV binding efficiency against GBP3.1-EGFP: 5 fold
Substance: GBP3.1(R8A)EGFP (peptide)
